Where “and” joins values, the source holds several entries; their conditions need not be identical. Identical values can stand only once.
Columns and labels:
[1] = P2A concentration estimate and specific activity in cell lysates (CENTA assay, P2A protein standard); assay type: biochemical; conditions: BLR (DE3) P2A Clone 1 lysate, replicates 1 and 2
Protocol: To achieve an estimate of the amount of P2A protein in each of the lysates, dilutions of the lysates (5 ul, 2.5 ul, 1.3 ul, and 0.63 ul) were evaluated on SDS/PAGE compared to dilutions of a purified P2A standard protein (2.0 ug, 1.0 ug, 0.5 ug, 0.25 ug, 0.13 ug). Based on the P2A protein band intensities, an estimate of the amount of P2A protein in each of the lysates was obtained. The biological activity of the P2A protein in the cell lysates under the different lysing conditions was evaluated using the CENTA chromogenic assay compared to the biological activity of the P2A protein standard. The biological activity was normalized based on the P2A protein concentration estimate and an estimated P2A specific activity was obtained. […] The P2A expression cassette without the leader will be used for future studies.
Based on the P2A protein band intensities, an estimate of the amount of P2A protein in each of the lysates was obtained. The biological activity of the P2A protein in these cell lysates was evaluated using the CENTA chromogenic assay compared to the biological activity of the P2A protein standard. The biological activity was normalized based on the P2A protein concentration estimate and an estimated P2A specific activity was obtained.

[2] = P2A enteric-coated pellets and intravenous cefotaxime in jejunal-fistulated dogs; assay type: in vivo, laboratory beagles; conditions: enteric-coated pellets, 0.5 mg/kg or 0.25 mg/kg P2A, intravenous cefotaxime 120 mg/kg
Protocol: An enteric-coated pellet formulation of P2A was produced using methods similar to that used successfully for the production of the P1A enteric-coated pellets (e.g. sucrose core particles, pH-dependent polymer Eudragit L 30 D-55 coating, see Tarkkanen, Antimicrobial Agents and Chemotherapy, June 2009, p. 2455-2462, the entire contents of which are hereby incorporated by reference).
The ability of P2A to degrade cefotaxime in the dog intestinal tract was evaluated using laboratory beagles that had permanent jejunal fistulas. The fistulas allowed the repeated collection of jejunal chyme specimens from these animals. Dogs were treated with peroral P2A enteric-coated pellets at two doses, 0.5 mg/kg or 0.25 mg/kg of P2A content and/or intravenous cefotaxime (120 mg/kg). The dosing was performed twice. Animals were fed 20 minutes before P2A was delivered orally. Each animal received 3-5 P2A capsules, dependent on the P2A dose and the body weight. Cefotaxime was delivered intravenously 10 minutes after P2A administration. […] Cefotaxime levels in chyme were measured using a plate diffusion method using cefotaxime susceptible Micrococcus luteus TS504 as the test strain. P2A activity levels in chyme were determined spectrophotometrically using meropenem as a substrate. Meropenem hydrolysis was monitored at a wavelength of 297 nm.

[3] = Oral P2A and intravenous ceftriaxone in jejunal-fistulated dogs; assay type: in vivo, laboratory beagles; conditions: peroral P2A 2.5 mg/kg, intravenous ceftriaxone 30 mg/kg, omeprazole
Protocol: The ability of P2A to degrade ceftriaxone in the dog intestinal tract was evaluated using laboratory beagles that had permanent jejunal fistulas. The fistulas allowed the repeated collection of jejunal chyme specimens from these animals. Dogs were treated with peroral P2A (2.5 mg/kg) in a liquid formulation (PBS buffer), and/or intravenous ceftriaxone (30 mg/kg). A single dose of omeprazole (10 mg) was delivered orally to each dog prior to treatment with ceftriaxone and/or P2A to inhibit the HCl activity in the stomach to potentially reduce P2A degradation. Serum samples were collected and serum ceftriaxone levels quantified. Jejunal chyme samples were collected and ceftriaxone and P2A levels were quantified. Ceftriaxone levels in serum and chyme were measured using a plate diffusion method using ceftriaxone susceptible Micrococcus luteus TS504 as the test strain. P2A activity levels in chyme were determined spectrophotometrically using meropenem as a substrate. Meropenem hydrolysis was monitored at a wavelength of 297 nm.

B1: P2A: broad spectrum carbapenemase, class B metallo-enzyme requiring zinc, SEQ ID NO: 37; P2A-21 = product of strain SYT-PP0602-21 (protein)
chain: ETGTISISQLNKNVWVHTELGYFNGEAVPSNGLVLNTSKGLVLVDSSWDNKLTKELIEMVEKKFQKRVTDVIITHAHADRIGGITALKERGIKAHSTALTAELAKNSGYEEPLGDLQTITSLKFGNTKVETFYPGKGHTEDNIVVWLPQYQILAGGCLVKSAEAKDLGNVADAYVNEWSTSIENVLKRYGNINSVVPGHGEVGDKGLLLHTLDLLK
% Activity Compared to P2A standard ([1]; induction 18 o/n): 103% and 156%
P2A-lactamase Activity ([1]; induction 18 o/n): 0.21 mg/mL and 0.16 mg/mL
% Activity Compared to P2A standard ([1]; induction 25 on): 148% and 135%
P2A-lactamase Activity ([1]; induction 25 on): 0.30 mg/mL and 0.27 mg/mL
% Activity Compared to P2A standard ([1]; induction 37 3 hrs): 131% and 182%
P2A-lactamase Activity ([1]; induction 37 3 hrs): 0.13 mg/mL and 0.18 mg/mL
cefotaxime degradation in the intestinal tract [2]: degraded cefotaxime
overall cefotaxime levels in chyme [2]: lower overall levels of cefotaxime in their chyme
ceftriaxone in jejunal chyme [3]: degraded ceftriaxone
effect on serum levels of ceftriaxone [3]: does not reduce serum levels of ceftriaxone
